One block for each binder: values may come before it.
Target: Prp8^885–2413 tagged with a calmodulin-binding peptide (CBP) at the N terminus (yeast, UniProt P33334 885-2413)
Test: pull-down; calmodulin pull-down; CBP-tagged Prp8^885-2413 or its complexes as bait (0.5 μM), prey 1.0 μM; overnight at 4°C in 20 mM HEPES K+ pH 7.8, 300 mM KCl, 1 mM Mg(OAc)2, 2 mM CaCl2, 10 mM β-mercaptoethanol; calmodulin resin 3 hr, eluted with EGTA; SDS-PAGE
Settings: both partners purified

Chain of Prp8^885–2413 tagged with a calmodulin-binding peptide (CBP) at the N terminus (P33334 885-2413): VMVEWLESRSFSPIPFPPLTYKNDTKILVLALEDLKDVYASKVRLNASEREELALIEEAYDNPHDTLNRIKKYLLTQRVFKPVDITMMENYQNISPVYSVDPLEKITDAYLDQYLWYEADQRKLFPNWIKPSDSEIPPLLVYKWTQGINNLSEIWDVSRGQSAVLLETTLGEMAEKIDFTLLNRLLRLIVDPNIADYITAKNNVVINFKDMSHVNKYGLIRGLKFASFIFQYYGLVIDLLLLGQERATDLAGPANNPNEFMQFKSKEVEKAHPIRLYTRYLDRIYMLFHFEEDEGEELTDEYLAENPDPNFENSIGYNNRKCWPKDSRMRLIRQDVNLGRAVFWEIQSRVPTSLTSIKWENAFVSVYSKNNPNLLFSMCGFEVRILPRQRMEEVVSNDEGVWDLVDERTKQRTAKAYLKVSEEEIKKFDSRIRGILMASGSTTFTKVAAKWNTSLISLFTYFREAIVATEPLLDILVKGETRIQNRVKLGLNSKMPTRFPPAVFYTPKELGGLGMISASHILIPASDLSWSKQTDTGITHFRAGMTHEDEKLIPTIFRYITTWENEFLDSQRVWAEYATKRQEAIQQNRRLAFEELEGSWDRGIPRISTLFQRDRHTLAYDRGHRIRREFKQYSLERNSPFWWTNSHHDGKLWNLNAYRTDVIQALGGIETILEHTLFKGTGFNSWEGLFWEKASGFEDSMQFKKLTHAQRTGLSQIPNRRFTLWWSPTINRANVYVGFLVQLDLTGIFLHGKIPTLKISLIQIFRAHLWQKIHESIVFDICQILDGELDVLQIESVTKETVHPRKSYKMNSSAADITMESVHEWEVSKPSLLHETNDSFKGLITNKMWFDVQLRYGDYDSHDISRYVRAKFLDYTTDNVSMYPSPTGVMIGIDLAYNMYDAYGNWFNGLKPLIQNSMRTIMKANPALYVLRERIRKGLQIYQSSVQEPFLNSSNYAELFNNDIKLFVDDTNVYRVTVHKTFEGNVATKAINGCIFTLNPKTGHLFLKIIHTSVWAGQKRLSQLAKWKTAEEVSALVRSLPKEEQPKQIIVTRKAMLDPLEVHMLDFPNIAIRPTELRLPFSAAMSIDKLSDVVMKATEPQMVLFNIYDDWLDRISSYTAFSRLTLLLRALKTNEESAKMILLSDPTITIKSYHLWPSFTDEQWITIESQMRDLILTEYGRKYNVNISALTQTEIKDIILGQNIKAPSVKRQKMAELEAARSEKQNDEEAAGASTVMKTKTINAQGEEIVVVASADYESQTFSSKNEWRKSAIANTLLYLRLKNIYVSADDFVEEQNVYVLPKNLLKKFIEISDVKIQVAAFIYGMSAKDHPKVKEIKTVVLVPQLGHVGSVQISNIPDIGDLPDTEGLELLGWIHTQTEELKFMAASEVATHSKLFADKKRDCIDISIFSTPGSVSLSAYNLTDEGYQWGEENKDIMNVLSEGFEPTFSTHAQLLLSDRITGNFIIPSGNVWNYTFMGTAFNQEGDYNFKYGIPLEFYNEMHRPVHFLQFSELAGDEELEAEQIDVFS

- binding result: binds
B1: Aar2ΔC (missing 23 C-terminal residues) (domain or fragment, yeast, UniProt P32357 1-332, looked up)
chain: MNTVPFTSAPIEVTIGIDQYSFNVKENQPFHGIKDIPIGHVHVIHFQHADNSSMRYGYWFDCRMGNFYIQYDPKDGLYKMMEERDGAKFENIVHNFKERQMMVSYPKIDEDDTWYNLTEFVQMDKIRKIVRKDENQFSYVDSSMTTVQENELLKSSLQKAGSKMEAKNEDDPAHSLNYTVINFKSREAIRPGHEMEDFLDKSYYLNTVMLQGIFKNSSNYFGELQFAFLNAMFFGNYGSSLQWHAMIELICSSATVPKHMLDKLDEILYYQIKTLPEQYSDILLNERVWNICLYSSFQKNSLHNTEKIMENKYPELLGKDNEDDALIYGISD
notes: Aar2, yeast, missing 23 C-terminal residues (so in the source)

- binding result: binds
B2: Aar2 (natural protein, yeast, UniProt P32357 1-355, looked up)
chain: MNTVPFTSAPIEVTIGIDQYSFNVKENQPFHGIKDIPIGHVHVIHFQHADNSSMRYGYWFDCRMGNFYIQYDPKDGLYKMMEERDGAKFENIVHNFKERQMMVSYPKIDEDDTWYNLTEFVQMDKIRKIVRKDENQFSYVDSSMTTVQENELLKSSLQKAGSKMEAKNEDDPAHSLNYTVINFKSREAIRPGHEMEDFLDKSYYLNTVMLQGIFKNSSNYFGELQFAFLNAMFFGNYGSSLQWHAMIELICSSATVPKHMLDKLDEILYYQIKTLPEQYSDILLNERVWNICLYSSFQKNSLHNTEKIMENKYPELLGKDNEDDALIYGISDEERDDEDDEHNPTIVGGLYYQRP
notes: Aar2, U5 snRNP assembly factor, yeast; also called U5 snRNP assembly factor Aar2

Source: paper PMC3677097, “Structural Basis of Brr2-Prp8 Interactions and Implications for U5 snRNP Biogenesis and the Spliceosome Active Site” (Structure(London, England:1993), 2013)
